In doi:10.1101/2024.05.21.594841:
“And” between values parts separate entries of the source, which are not always exact repeats. Equal values may be shown once.

Molecular target: these 5 target proteins
Experiment: split reporter

- normalized interacting score: 83% and 93%
B1: Lhs1p (natural protein)
chain: AVLGVDYGQQNIKAIVVSPQAPLELVLTPEAKRKEISGLSIKRLPGYGKDDPNGIERIYGSAVGSLATRFPQNTLLHLKPLLGKSLEDETTVTLYSKQHPGLEMVSTNRSTIAFLVDNVEYPLEELVAMNVQEIANRANSLLKDRDARTEDFVNKMSFTIPDFFDQHQRKALLDASSITTGIEETYLVSEGMSVAVNFVLKQRQFPPGEQQHYIVYDMGSGSIKASMFSILQPEDTTQPVTIEFEGYGYNPHLGGAKFTMDIGSLIENKFLETHPAIRTDELHANPKALAKINQAAEKAKLILSANSEASINIESLINDIDFRTSITRQEFEEFIADSLLDIVKPINDAVTKQFGGYGTNLPEINGVILAGGSSRIPIVQDQLIKLVSEEKVLRNVNADESAVNGVVMRGIKLSNSFKTKPLNVVDRSVNTYSFKLSNESELYDVFTRGSAYPNKTSILTNTTDSIPNNFTIDLFENGKLFETITVNSGAIKNSYSSDKCSSGVAYNITFDLSSDRLFSIQEVNCICQSENDIGNSKQIKNKGSRLAFTSEDVEIKRLSPSERSRLHEHIKLLDKQDKERFQFQENLNVLESNLYDARNLLMDDEVMQNGPKSQVEELSEMVKVYLDWLEDASFDTDPEDIVSRIREIGILKKKIELYMDSAKEPLNSQQFKGMLEEGHKLLQAIETHKNTVEEFLSQFETEFADTIDNVREEFKKIKQPAYVSKALSTWEETLTSFKNSISEIEKFLAKNLFGEDLREHLFEIKLQFDMYRTKLEEKLRLIKSGDESRLNEIKKLHLRNFRLQKRKEEKLKRKLEQEKSRNNNETESTVINSADDKTTIVNDKTTESNPSSEEDILHDEL
